Laboratory results from article PMC5430804, “Structural and biochemical insights of CypA and AIF interaction” (Scientific Reports, 2017).
*: point of attachment. Dabcyl = CN(C)c1ccc(N=Nc2ccc(C(=O)*)cc2)cc1; EDANS = O=S(=O)(O)c1cccc2c(NCCN*)cccc12

Experiments:
CypA and CypA^R55A [1] = experiment: EnSpire label-free binding of AIF to immobilized CypA and CypA^R55A; conditions: CypA and CypAR55A immobilized, means of triplicates
Procedure: (§1) Direct binding assays were performed with the Corning Epic label-free technology with the EnSpire Multimode Plate Reader (PerkinElmer, Rodgau, Germany) as reported in literature.1 Briefly, […]
(§2) µg/mL streptavidin solution in 20 mM sodium acetate at pH 4.0, for 16 h at 4 °C. The microplate was subsequently washed three times with phosphate-buffered saline (PBS 1X, pH 7.4). After […]
(§3) assay buffer (PBS 1X, pH 7.4) for 2 hours followed by three washing steps in PBS 1X at pH 7.4.
(§4) After 2 h incubation, a baseline reading was recorded. Then 30 µL of peptide samples were dispensed in the plate. The final readings were taken over a period of 1 hour. Label-free responses were measured as shifts in reflected wavelength and were expressed in picometers (Fig. S4). The difference between the last baseline measurements and the maximum signal was used to determine the KD values (Table 1 in the main text). […]
biosensor by adding directly 100 µg/mL of protein in 20 mM sodium acetate pH 4.0, for 16 h at 4 °C (Fig. S5). […]
the procedure described above. Results were analyzed using the EnSpire label-free user interface software. […]
coated with CypA wild type with and without the CsA. Results were analyzed using the EnSpire label-free user interface software. […]
(B). Results were analyzed using the EnSpire label-free user interface software. […]

AIF(370-394) = target: T1, AIF(370-394) (Homo sapiens, UniProt O95831); experiment: EnSpire label-free direct binding to AIF(370-394); conditions: for KD: Corning Epic/EnSpire label-free, biotinylated AIF(370-394) immobilized on streptavidin-coated biosensor, PBS 1X pH 7.4, readings over 1 hour, means of triplicates; for binding / affinity for AIF(370-394), in words: EnSpire label-free
T1 construct: host or cells: chemical synthesis (synthetic peptide)
T1 sequence (O95831 370-394 limits assumed): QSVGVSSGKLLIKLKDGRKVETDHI
Procedure: Although peptide-peptide interaction insights might be prejudiced by the lack of appropriate 3D structures and require additional experimental assessment with full length proteins, they can mimic and anticipate in several cases real interactions. […] KD values determined by this approach are reported in Table 1 and the binding curves are shown in Supplementary Fig. S4.
as §1, §2, §3, §4
(§5) biosensor by adding directly 100 µg/mL of protein in 20 mM sodium acetate pH 4.0, for 16 h at 4 […]
(§6) by adding 200 µg/mL of protein in 20 mM sodium acetate pH 5.5, for 16 h at 4 °C. […]
(§7) the procedure described above. Results were analyzed using the EnSpire label-free user interface software. Plots were generated using GraphPad PrismR V-5.01 (GraphPad Software, La Jolla, CA). […]
Graphs were generated using GraphPad PrismR V-5.01 (GraphPad Software, La Jolla, CA). Results are means of triplicates.
(§8) (1 picture or pasted object on this page, not shown here)

AIF(Δ1-121) = AIF(Δ1-121) (Homo sapiens, UniProt O95831); experiment: EnSpire label-free direct binding to AIF(Δ1-121); conditions: for KD: Corning Epic/EnSpire label-free, AIF(Δ1-121) immobilized on biosensor (100 µg/mL, 20 mM sodium acetate pH 4.0), PBS 1X pH 7.4, readings over 1 hour, means of triplicates
AIF(Δ1-121), sequence (O95831 122-613, stated change not applied): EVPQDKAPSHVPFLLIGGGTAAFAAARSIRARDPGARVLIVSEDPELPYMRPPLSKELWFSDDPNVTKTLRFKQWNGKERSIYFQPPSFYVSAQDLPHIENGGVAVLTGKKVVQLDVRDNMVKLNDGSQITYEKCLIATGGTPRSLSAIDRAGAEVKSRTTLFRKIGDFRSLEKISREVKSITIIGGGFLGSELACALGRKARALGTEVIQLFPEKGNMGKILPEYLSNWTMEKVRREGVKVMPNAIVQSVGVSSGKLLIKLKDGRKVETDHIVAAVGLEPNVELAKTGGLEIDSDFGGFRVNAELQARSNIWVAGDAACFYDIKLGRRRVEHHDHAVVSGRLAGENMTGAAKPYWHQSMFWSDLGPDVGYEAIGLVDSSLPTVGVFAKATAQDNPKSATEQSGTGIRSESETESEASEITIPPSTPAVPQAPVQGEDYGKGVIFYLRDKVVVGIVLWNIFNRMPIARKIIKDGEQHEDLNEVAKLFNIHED
Procedure: as §1, §2, §3, §4, §5, §6, §7
Results were analyzed using the EnSpire label-free user interface software. Graphs were generated using GraphPad PrismR V-5.01 (GraphPad Software, La Jolla, CA). Results are means of triplicates.
as §8

[2] = tested on: CypA-CsA preformed complex; experiment: ITC competition: AIF(370-394) titrated onto CypA-CsA preformed complex; type: binding; conditions: AIF(370-394) 5 to 500 μM titrated onto CypA-CsA complex, 25 °C
Procedure: Figure 5 ITC binding assay. […] The bottom panels show the integrated heat of each injection after correction for the heat of dilution of ligands. Curves represent the best fit to a single-site binding model. (C, D) ITC competition assays.
ITC experiments were performed at 25 °C using a MicroCal ITC200 (GE Healthcare Bio-Sciences AB, Sweden). Protein and peptide samples were dialyzed in phosphate saline buffer (PBS 1X) containing 1 mM DTT, pH 7.4. […] Data were analyzed using the “Origin” software (MicroCal). The dissociation constant (KD), molar binding stoichiometry (n) and the binding enthalpy (ΔH), entropy (ΔS) and Gibbs free energy (ΔG) were determined by fitting the binding isotherm to a one-site model with MicroCal Origin software. All ITC experiments were performed in triplicate.

CypA/CsA complex = experiment: NMR competition with preformed CypA/CsA complex; type: binding; conditions: AIF(370-394) gradually added to preformed CypA/CsA complex
CypA and CypA^R55A [3] = experiment: Competition of CypA/substrate complex formation (fluorescence quenching); type: binding
Source text: Results are means of triplicates.
as §8

CypA [4] = target: T2, CypA (Homo sapiens, UniProt P62937); conditions: binding to CypA; cited from earlier work
T2 construct: His tag (6His); made in house
T2 sequence (P62937 whole entry): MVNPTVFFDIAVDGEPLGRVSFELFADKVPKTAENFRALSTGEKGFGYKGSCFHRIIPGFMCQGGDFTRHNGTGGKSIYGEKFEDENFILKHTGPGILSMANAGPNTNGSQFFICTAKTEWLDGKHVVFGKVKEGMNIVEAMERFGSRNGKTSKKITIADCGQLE
Source text: CSPs were quantified in terms of ΔδHNavs and classified as strong, medium and weak (see Methods section for details).

AIF(Δ1-121)/CypA complex = tested on: AIF(Δ1-121)/CypA complex; set-up: method as in PMID 24434516; conditions: cited from earlier work
neuronal cells = tested on: neuronal cells; set-up: method as in PMID 24434516; conditions: cited from earlier work
CypA [5] = target: T2, CypA; experiment: Fluorescence quenching binding of FRET substrate; conditions: excitation 340 nm, emission 510 nm
Source text: probe clusters) and CS003 (11 probe clusters), CS004 (7 probe clusters), CS005 (4 probe clusters), CS006 (4 probe clusters) and CS007 (4 probe clusters), CS008 (3 probe clusters), CS009 (2 probe clusters). The top scoring ligand-binding site identified by FTMap on CypA is the active site, while the second, CS001 (Figure S7) is constituted by loops connecting α1-β3 (G42-C52) and a portion of the loop connecting β4-β5 (G65-S99), close to the catalytic site of CypA within the same interaction surface identified by NMR studies and mapped by trypsin MS-based foot-printing and contains 19 probe clusters. […]
Fluorescence-based assays
Fluorescence quenching assays were performed using the FRET substrate Ac-EK(Dabcyl)PPFAE(EDANS)KA-NH2 (MW 1556.2 amu) reported in literature.6 At 0.23 ng/μL (0.15 μM) the substrate provides a significant fluorescence emission at 510 nm compared to the buffers used in the assay (PBS 1X) (Figure S8A). […] Kinetic constants were determined by fitting data of fluorescence maxima at 510 nm of EDANS upon protein additions. […]
(Fig. S8B, red and blue lines, respectively) on the CypA/substrate complex formation were determined using a 10-fold excess (1.5 μM) of compounds. […]
Figure S8. Binding assay based on fluorescence quenching. (A) Fluorescence emission spectrum of CypA substrate. Samples were excited at 340 nm, and the emission in the range of 450-600 nm was measured. […]

With “AIF(Δ1-121): apoptogenic (pro-apoptotic) form of AIF” the “binding to CypA versus CypA^R55A” value (CypA and CypA^R55A [1]) was “bound CypA and CypA^R55A in a similar way”.

For “CypA(83-90): CypA-derived synthetic peptide, residues 83-90 (FEDENFIL)”, the KD (AIF(370-394)) was “No binding” and the KD (AIF(Δ1-121)) was “No binding”.

In the case of `CC[C@H](C)[C@H](NC(=O)[C@H](Cc1c[nH]cn1)NC(=O)[C@H](CC(=O)O)NC(=O)[C@@H](NC(=O)[C@H](CCC(=O)O)NC(=O)[C@@H](NC(=O)[C@H](CCCCN)NC(=O)[C@H](CCCNC(=N)N)NC(=O)CNC(=O)[C@H](CC(=O)O)NC(=O)[C@H](CCCCN)NC(=O)[C@H](CC(C)C)NC(=O)[C@H](CCCCN)NC(=O)[C@@H](NC(=O)[C@H](CC(C)C)NC(=O)[C@H](CC(C)C)NC(=O)[C@H](CCCCN)NC(=O)CNC(=O)[C@H](CO)NC(=O)[C@H](CO)NC(=O)[C@@H](NC(=O)CNC(=O)[C@@H](NC(=O)[C@H](CO)NC(=O)[C@H](CCC(N)=O)NC(C)=O)C(C)C)C(C)C)[C@@H](C)CC)C(C)C)[C@@H](C)O)C(N)=O` [AIF(370-394)], the heat exchange [2] is reported as “no apparent heat exchange was observed”, the “AIF(370-394) interaction with CypA after CsA binding” value (CypA/CsA complex) is reported as “CsA binding to CypA did not fully abrogate the AIF(370-394) interaction with CypA” and the “effect on CypA and CypA^R55A binding to substrate” value (CypA and CypA^R55A [3]; 10-fold excess (1.5 μM) of compound, fluorescence quenching, 510 nm, triplicates) is reported as “unable to prevent the binding of both CypA and CypA^R55A to the substrate”. For the same compound, the “effect on enzyme-substrate recognition” value (CypA and CypA^R55A [3]; larger excess of AIF(370-394), not shown) was “does impair the enzyme-substrate recognition”, the “KD, in words” value (CypA [4]) was “low micromolar range” and the “inhibition of AIF(Δ1-121)/CypA complex formation in vitro” value (AIF(Δ1-121)/CypA complex) was “able to inhibit the AIF(Δ1-121)/CypA complex formation in vitro”. For the same compound, the “binding to CypA versus CypA^R55A” value (CypA and CypA^R55A [1]) was “bound CypA and CypA^R55A in a similar way”, the neuroprotection (neuronal cells; AIF(Δ1-121)/CypA-mediated glutamate-induced cell death) was “pronounced neuroprotection” and the “nuclear translocation of AIF and CypA” value (neuronal cells) was “blocking the nuclear translocation of the two proteins”.

With “CypA(154-165): CypA-derived synthetic peptide, residues 154-165 (KKITIADCGQLE)” the KD (AIF(370-394)) was “No binding”, the “binding / affinity for AIF(370-394), in words” value (AIF(370-394)) was “did not interact with AIF(370-394)” and the KD (AIF(Δ1-121)) was “No binding”.

For “Ac-EK(Dabcyl)PPFAE(EDANS)KA-NH2 (SMILES CC(=O)N[C@@H](CCC(=O)O)C(=O)N[C@@H](CCCCNC(=O)c1ccc(N=Nc2ccc(N(C)C)cc2)cc1)C(=O)N1CCC[C@H]1C(=O)N1CCC[C@H]1C(=O)N[C@@H](Cc1ccccc1)C(=O)N[C@@H](C)C(=O)N[C@@H](CCC(=O)NCCNc1cccc2c(S(=O)(=O)O)cccc12)C(=O)N[C@@H](CCCCN)C(=O)N[C@@H](C)C(N)=O) [CypA substrate, FRET substrate of CypA, MW 1556.2 amu]”, the “Δfluorescence emission vs buffer” value (CypA [5]) was 319 a. u.

With “CypA(55-69)R69: CypA(55-69) with R69 replaced by alanine (RIIPGFMCQGGDFTA)” the KD (AIF(370-394)) was “No binding”, the “binding / affinity for AIF(370-394), in words” value (AIF(370-394)) was “completely abrogated the binding to both the AIF forms” and the “binding / affinity for AIF(Δ1-121), in words” value (AIF(Δ1-121); EnSpire label-free) was “completely abrogated the binding to both the AIF forms”.

Work on CypA wild type: His-tagged CypA protein yielded a Kd (AIF(370-394); full-length protein: CypA / CypAR55A immobilized (200 µg/mL, sodium acetate pH 5.5), AIF(370-394) added at several concentrations, means of triplicates (Fig. S7A)) of 3000 ± 600 nM.

With “CypA(136-150): CypA-derived synthetic peptide, residues 136-150 (MNIVEAMERFGSRNG)” the KD (AIF(370-394)) was “No binding”, the “binding / affinity for AIF(370-394), in words” value (AIF(370-394)) was “did not interact with AIF(370-394)” and the KD (AIF(Δ1-121)) was “No binding”.
